{"source": "patent US9758785B2", "about": "“miR-520 microRNAs sensitize cancers to platinum-based therapy” (BAYLOR COLLEGE OF MEDICINE, priority 2012, dated 2017)", "molecules": {"B1": {"name": "hsa-mir-520h MI0003175 (nucleic acid, listed as Homo sapiens)", "chain": "UCCCAUGCUGUGACCCUCUAGAGGAAGCACUUUCUGUUUGUUGUCUGAGAAAAAACAAAGUGCUUCCCUUUAGAGUUACUGUUUGGGA", "modifications": "expressed or natural sequence", "notes": "synthetic mimic or stably expressed from pLemiR vector; written miR-520g/h interchangeably"}}, "format_in_all_cases": "cell-based, human", "key": {"CHK1": {"tested_on": "CHK1", "test": "qPCR gene response to cisplatin in OVCAR8 cells", "details": "OVCAR8 stable clones vs non-silencing control", "experimental": "(§1) Total RNA was extracted from cell pellets using the mirVana miRNA extraction kit (Ambion, Austin, Tex.) according to the manufacturer's instructions. Levels of microRNA expression were examined using Mature MicroRNA Taqman assays (Applied Biosystems, Foster City, Calif.) using U6 as a control. For all gene expression assays, cDNA was prepared using qScript cDNA supermix (Quanta Biosciences, Gaithersburg, Md.). TaqMan gene expression assays (Applied Biosystems) were used to measure expression of specific target genes according to the manufacturer's instructions. All reactions were performed in triplicate using OneStepPlus real time PCR system (Applied Biosystems). All qPCR results are reported using the ΔΔCT method (17)."}, "BRCA1": {"tested_on": "BRCA1", "test": "qPCR gene response to cisplatin in OVCAR8 cells", "details": "OVCAR8 stable clones vs non-silencing control", "experimental": "as §1"}, "CASP7": {"tested_on": "CASP7", "test": "qPCR gene response to cisplatin in OVCAR8 cells", "details": "OVCAR8 stable clones vs non-silencing control", "experimental": "as §1"}, "CDC25c": {"tested_on": "CDC25c", "test": "qPCR gene response to cisplatin in OVCAR8 cells", "details": "OVCAR8 stable clones vs non-silencing control", "experimental": "as §1"}, "CHK2": {"tested_on": "CHK2", "test": "qPCR gene response to cisplatin in OVCAR8 cells", "details": "OVCAR8 stable clones vs non-silencing control", "experimental": "as §1"}, "ATM transcript": {"tested_on": "ATM transcript", "test": "qPCR of ATM transcript in OVCAR8 cells", "details": "OVCAR8, qPCR vs non-silencing control, baseline without cisplatin", "experimental": "as §1"}}, "note": "Entries after “also recorded” stand apart in the source; their conditions may differ."}
{"molecule": "B1", "values": [{"measurement": "CHK1 expression response to cisplatin", "setting": "CHK1", "result": "inhibited; also recorded: blunts the responses"}, {"measurement": "BRCA1 expression response to cisplatin", "setting": "BRCA1", "result": "blunts the responses"}, {"measurement": "BRCA1 expression response to cisplatin", "setting": "BRCA1; listed as miR-520g/h", "result": "significantly less"}, {"measurement": "Caspase 7 expression response to cisplatin", "setting": "CASP7", "result": "targeted; also recorded: blunts the responses"}, {"measurement": "Caspase 7 expression response to cisplatin", "setting": "CASP7; listed as miR-520g/h", "result": "significantly less"}, {"measurement": "CDC25C expression response to cisplatin", "setting": "CDC25c", "result": "blunts the responses"}, {"measurement": "CHK2 expression response to cisplatin", "setting": "CHK2", "result": "blunts the responses"}, {"measurement": "ATM transcript level", "setting": "ATM transcript", "result": "paradoxically higher"}, {"measurement": "ATM transcript level", "setting": "ATM transcript; listed as miR-520g/h", "result": "actually higher"}]}
